The series is described as follows: yeast display, Sf9 membrane polyspecificity reagent, FACS + sequencing; frameworks hold sequencing errors. In outline: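 In a synthetic yeast display library (Saccharomyces cerevisiae BJ5465), nanobody expression was induced with galactose for 36–48 hours. FACS gates were set low and high (top ~1%) using anti-HA fluorescence for expression and streptavidin fluorescence for binding of the Sf9 membrane reagent. Each polyreactivity label is drawn from the gate of origin.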
For “QVQLVESGGGLVQAGGSLRLSCAASGSTINWNAMGWYRQAPGKERELVASINRGDSTYYADSVKGRFTISRDNAKNTVYLQMNSLKPEDTAVYYCAARRYYSLRTFLYCFSKYDYWGQGTQVTVSS”, the “polyreactivity (PSR sort gate)” value is “high polyreactivity”.

As for “QVQLVESGGGLVQAGGSLRLSCAASGITFDDNAMGWYRQAPGKERELVATISDGGRTYYADSVKGRFTISRDNAKNTVYLQMNSLKPEDTAVYYCAAGYPYYHVYGYGYWGQGTQVTVSS”, the “polyreactivity (PSR sort gate)” value is “low polyreactivity”.

For “QVHLVESGGGLVQAGGSLRLSCAASGSTFYLYAMGWYRQATGKERELDASISRSGITTYSDSVKGRFTITRDNAKNNVYLQLNSRNPEDTADYYCAVRYYSASYWYGYDYWGLGTQVTVSS”, the “polyreactivity (PSR sort gate)” value is recorded as “high polyreactivity”.

Regarding “QVQLVESGGGLYQAGGSLRLSCAASGLIFTTNAMGWYRQAPGKEREFVAAISPSGGSTYYADSVKGRFTISRDNAKNTVYLQMNSLKPEDTAVYYCAARYSPVWHKYYYWGQGTQVTVSS”, the “polyreactivity (PSR sort gate)” value is recorded as “high polyreactivity”.

With “QVQLVESGGGLVQAGGSLRLSCAASGRIVKYAMGWYRQAPGKERELVAAITSGGSTTYADSVKGRFTISRDNAKNTVYLQMNSLKPEDTAVYYCKALRRARYTRKGYEYWGQGTQVTVSS”, the “polyreactivity (PSR sort gate)” value was “high polyreactivity”.

“QVQLVESGGGLVQAGVRLRLSFAASGFTFRLYTMGWYRQAPGKERELVAAITYSGDSTYYADSVKGRFTISRDNAKNTVYLQMNSLKPEDTAVYYCAARKYYARYYWGQGTQVTVSS”: the “polyreactivity (PSR sort gate)” value was “high polyreactivity”.

For “QLQLVESGGGLVQAGGSLRLSCAASGSTFGSNAMGWYRQAPGKERELVAAISTSSGSTYYAVSVKGRFTISRDNAMNTVYLQMNSMKPEDTAVYYCNADRHYVPYYSRPRYIPYDYWGQGTQVTVSS”, the “polyreactivity (PSR sort gate)” value is given as “high polyreactivity”.

With “QDQLVVSGGGLVQAGGSHSLSCAASGSIFIGYSMGWYRQAPGQERELVAAITSSGRTNYADSVKGRFTISRDNAKNTVYLQMTILKPEDTAVYYCNAEGYQFFTFDYWGQGTQVTVSS”, the “polyreactivity (PSR sort gate)” value was “low polyreactivity”.

As to “QVQIVESGGGLVQAGGSLRLSCAASGRTFGVYAMGWYRQAPAKESTYYADSVKGRFTISRDNAKNTVYLQMNSLKPEDTAVYYCNARGGFGYITMDYWGQGTQVTVSS”, the “polyreactivity (PSR sort gate)” value is given as “low polyreactivity”.

Take “QVQLVESGGGLVQAGGSLRLSCAYSGRTICSNAMGWYRQAPGKESELVARIDSTYYADSVKGRFTISRDNAKNTVYLQMNSLKPEDTAVYYCAADAWDHWTWFYPTNGMDYWGQGTQVNVSS”: the “polyreactivity (PSR sort gate)” value is listed as “low polyreactivity”.

As to “QVQLVESGGGLVQAGGSLRLSCAASGRSFAWYTMGWYRQAPGKERELVAAISGSGGSTYYADSVKGRFTISRDNAKNTVYLQMNSLKPEDSALYYGARRVDSYYGHTRFYYWGQGTQVTVSS”, the “polyreactivity (PSR sort gate)” value is given as “high polyreactivity”.

Regarding “QVQLVESGGRLVQSGGSLRLICAASGQIFQWYAMGWYRQAPGKETELVAAISSGDSTYYADSVTGRFTISRDNAKNTVYLDMNSLKPEDTAVDYCNARAIGWRIYDYWGQGTEVTVSS”, the “polyreactivity (PSR sort gate)” value is “high polyreactivity”.

Take “QVQRVESGGCLVQAGGSLRLSCAASGIIFGDNVRGWYRQSPGKERQLVAAITSDGSTNYADSVKGRFTISSDNEKNNVYLQMNSLKPEDTAVYYCNVSASYYSPDPKVLVRYDYWGQGSQVTVSS”: the “polyreactivity (PSR sort gate)” value was “low polyreactivity”.

Regarding “QVQLVESGGGLVQAGGSLRLSCAASGSTFGVYAMGWYRQAPGKEREFVAAITSSSGSTYYADSVKGRFTISRDNAKNTVYLQMNSLKPEDTAVYYCNVQGWTRSDAGRYDNMDYWGQGTQVTVSS”, the “polyreactivity (PSR sort gate)” value is “low polyreactivity”.

Regarding “QVQLVESGGGLVQAGGRLRLSCAASGRTFPYYVMGWYRQAPGKERELVAVIRWRGGSTYYADSVKGRFTISRDNAKNTVYLQMNSLKPEDTAVYYCAARRHIVVATYDRRYDYWGQGTQVTVSS”, the “polyreactivity (PSR sort gate)” value is on record as “low polyreactivity”.

“QVQLVESGGGLVQAGGSLRLSCAASVLIFEAYAMGWYRQAPAKERELVATINKSGGSTYYADSVKGRFTISRDNAKNTVYLQMNSLKPEDTAVYFCAAFFLLPSPWPSYWCWNGDYWGQRTQVTVSS”: the “polyreactivity (PSR sort gate)” value is recorded as “low polyreactivity”.

“QVQLVESGGGLVQAGGSLRLSCAASGSTFRANAMGWYRQAPGKERELVAAITSGGSTNYADSVKGRFTISRDNATNTVYLQMNSLKPEDTAVYYCADESYQEHSFYVYYGYDYWGQGTQVTVSS”: the “polyreactivity (PSR sort gate)” value is reported as “low polyreactivity”.

For the sequence “QVQLVESGGGLVQAGGSLRLSSAASGSTFYSYAMRWYRQAPGKERELVAAINWDGVSTYYADSVKGRFSISRDNAMNTVYLQMNSLKPEDTAVYYCAADLFSGYRISGTFYYWGQGTQVTVSS”, the “polyreactivity (PSR sort gate)” value is given as “low polyreactivity”.

Consider “QVQLVESGGGLVQAGGSLRLSCAASGIIFEPYAMGWYRQAPGKERELVASIRWSDGSTFYADSVKGRFTISRDNAKNTVYLQMNSLKPEDTAVYYCNAVYEHRRVGWVTIDYGYWGQGSQVTVSS”, for which the “polyreactivity (PSR sort gate)” value is on record as “low polyreactivity”.

On to “QEQLQESGGGLVQAGGSLRLSSAASGSISGSSTMGWYRQAQGKERELVASIAVGANTNYADSAKGRFTISRDNAKNTVYLQMNSLKPEDTAVYYCAVDYYIYYFHYWGQGTQVTVSS”, for which the “polyreactivity (PSR sort gate)” value was “high polyreactivity”.

For “QVQLVESGGGLVQAGGSLRLSSAASRSIFDYYAMGWYRQAPGKEREFVAAISESSDSTYYADSVKGRFTISRDNAKNTVYLQMNSLKPEDTAVYYCAGQRGGPFPRVVDLYDYWGQGTQVTVSS”, the “polyreactivity (PSR sort gate)” value is “low polyreactivity”.

On to “QVQLVESGGGLVQAGGSLRLSSAASGFTFGSYAMGWYRQAPGKERELVAAIRASGGRTYYADSVKGRFTISRDNAKNTVYLQMNSLKPEDTAVYYCAAQLPMGKRYYYWGQGTQVTVSS”, for which the “polyreactivity (PSR sort gate)” value is reported as “high polyreactivity”.

As for “QVQLVESGGGLVQAGGSLRLSCAASGSTFNAYAMGWYRQAPGKERELVADISFSGGTYYADSVKGRFTISRDNAKNTVYLQMNSLKPEDTAVYYCSAESRWRSSAGGYYYWGQGTQVTVSS”, the “polyreactivity (PSR sort gate)” value is reported as “low polyreactivity”.

Regarding “QVQLVESGGGLVQAGGSLRISCAASVSTFWYYAMGWYIQAPRKERELVAPISRTGGGTYYADSVKGRFTISRDNAKNSVYLQMNSLKPEDTAVYYCARGSVYSDAQIYDYWGQGTQVTVSS”, the “polyreactivity (PSR sort gate)” value is reported as “low polyreactivity”.

“QVQLVESGGGLVQAGGSLRLICAASGSTFLVYSMGWYRQEPGKERELVAAISYSGGSTYYADSVKGRFTISRDNSKNTVYLQLNSLKPEDTAVYYCNVEPVDRWYYKYDYWGQGTEVTVSS”: the “polyreactivity (PSR sort gate)” value is “low polyreactivity”.

Consider “QVQLVESGGVLVQAGGSLRLSCAASGSTFVYNAMGWYRQAPGKESEFVAAISGSGGSTYYADSVKGRFTISRDIAKNTVYLQMNSLKPDDTAVYYCATAGRYGRYRTYPYRSKYDYWGQGTQVTVSS”, for which the “polyreactivity (PSR sort gate)” value is “high polyreactivity”.

As to “QVQLVESGGGLVQAGGSLRLSCAASGFTFYAYAMGWYRQAPGKERELVAVITGGGSTYYADSVKGRFTISRDNAKNTVYLQMNSLKPEDTAVYYCAATYRGWLVGNGVWYWYYYWGQGTQVTVSS”, the “polyreactivity (PSR sort gate)” value was “high polyreactivity”.

As for “QVHLQESRGGLVQAGGSLRLSCAASGIIFDNPNMGCYRQAPGKERELVATINSGATTNYADSVKGRFTISRDNAKNTVYLQMNSLIPEDTAVYYCAVDLSPTYFYYWGQGTQVTVSS”, the “polyreactivity (PSR sort gate)” value is “high polyreactivity”.

As for “QVQLVESRGGLVQAGVSLRLSCSASGSIFPYYAMGWYRQAPGKEREFVASISSVTSTYADSVKGRFTISRDNAKNTVYFQMYILIPEDTAVYYFAADRAYSWYSVSRNNYWGPGTQVTVSS”, the “polyreactivity (PSR sort gate)” value is on record as “low polyreactivity”.

Regarding “QVQLVESGGGLVQAGGSLRLSCAASGSTFQSYAMGWYRQAPGKERELVAAITTTGTRTYYADSVKGRFTISRDNAKNTVYLQMNSLKPEDTAVYYCNAQRLQAHRTSRRYGYWGQGTQVTVSS”, the “polyreactivity (PSR sort gate)” value is “high polyreactivity”.

As for “QVQLVESGGGLVQAGGSLRLSCAASGLIFRWYDMGWYRQAPGKDRELVAAITRGGGTNYADSVKGRFTLSRDNAKNTVYLQMNSLKPEDTAVYYCAARLIKYGRAWTFGGYDYWGQGTQVSVSS”, the “polyreactivity (PSR sort gate)” value is listed as “high polyreactivity”.

As for “QVQLVESGGGLVQAGGSLRLSCAASGRIFYQNAMGWYRQAPGKERELVADISSGGSTYYADSVKGRFTISRDNAKNTVYLQMNSLKPEDTAVYYCAAEGQLFDLYDYWGQGTQVTVSS”, the “polyreactivity (PSR sort gate)” value is reported as “low polyreactivity”.

Turning to “QVQLVESGGGIVQAGGSLRLRCAASGSTFYVYHMGWDRPAPGKERELVAAISSGAGSTYYADSVKGRFTISRDNAKNTVYLQMNSLKRKIPRSITALLFTVNGGGSRSHDYWAQGTQVTVSS”, the “polyreactivity (PSR sort gate)” value is reported as “low polyreactivity”.

“QVQLVESGGGLVQAGGSLRLSCAASGRTFGANAMGWYRQAPGKERELVAAISSSDDSTYYADSVKGRFTISRDNAKNTVYLQMNSLKPEDTAVYYCAAEDVYPQLDYWGQGTLVTVSS”: the “polyreactivity (PSR sort gate)” value is on record as “low polyreactivity”.

Turning to “QVQLVESGGGLVQAGGSLRLSCAASGSTFDINAMGWYRQAPGKERELVAAINWSGDSTYYADSVKGRFTISRDTAKNTVYLQMNSLKPEDTAVYYCNADTIVAWFDIFEEMDSWGQGTQVTVSS”, the “polyreactivity (PSR sort gate)” value is “low polyreactivity”.

For “QVQLVESGGGLVQAGGSLRLSCAASGSIFYVYAMGWYRQAPGKERELDAGITTSGGSTYYADSVKGRFTISRDNAKNTVYLQMKSLKPEDTAVYYCATRNAFTAGSYNVYYGEYYWGQGTQVTVSS”, the “polyreactivity (PSR sort gate)” value is listed as “low polyreactivity”.

With “QVQLVQSGGGLVQAGGSLRLSCAASGSIFTPNAMGWYRQAPGKERELVAAISGRTGTTYYADSVKGRFTISRDNAKNTVYLQMHSLKPEDTAVYYCAKSSGRYRSDYRGQGTQVTVSS”, the “polyreactivity (PSR sort gate)” value was “high polyreactivity”.

For the sequence “QVQLVESGGGLVQAGGSLRLSCAASGSIFYANVKGWSRQAPGKERELDATISISSSTNYADSVKGRFTISRDNAKNTVYLQMNSLKPEDTAVYYCNASFGHHYSYWVDTSYDYWGQGTQVTVSS”, the “polyreactivity (PSR sort gate)” value is recorded as “low polyreactivity”.

As for “QVQLVESGGGLVQAGGSLRLSCAASGSTFGLYVMGWYRQAPGKERELVATITRSGGSTYADSVKGRFTISRDNAKNTVYLQMNSLKPEDTAVYYCNADYPKPVYYSYWHQEFEYWGQGTQVTVSS”, the “polyreactivity (PSR sort gate)” value is recorded as “low polyreactivity”.

Turning to “QVQLVESGGGLVQAGGSLRLSCAASGSIFYYYAMGWYRQAPGKERELVAAINGGDGRTYYADSVKGRFTISRDNGKNTVYLQMNSLKPEDTAVYYCAADWPGYSAYYYWGQGTQVTVSS”, the “polyreactivity (PSR sort gate)” value is on record as “low polyreactivity”.

(Values after the nanobody polyreactivity screen of Harvey et al. (2022).)
